Source: paper PMC3466776 (Biochemistry, 2012)
No end group written: not given here.

Assays:
Test in all cases: stopped-flow fluorescence
[1] = biological target: wild-type calmodulin (His-CaM) (rat, UniProt P0DP29 1-149)
[2] = biological target: N-lobe mutant of calmodulin (CaM12) (rat, UniProt P0DP29 1-149, D20 to alanine | D56 to alanine)
[3] = biological target: C-lobe mutant of calmodulin (CaM34) (rat, UniProt P0DP29 1-149, D93 to alanine | D129 to alanine)

Binder	binding result [1]	binding result [2]	binding result [3]
GSRPQRLLWQTAVRHITEQRFIHGH-NH2 [AC8-Nt peptide]	binds	binds	
IKPAKRMKFKTVCYLLVQLMHCRKMFKA (C-terminal amide) [AC1-C1b peptide]	binds	binds	
YSLAAVVLGLVQSLNRQRQKQLLNE-NH2 [AC8-C2b peptide]	binds		binds
